Experimental data as given in PMC2275666 (The EMBO Journal, 2008).

Tests used:
Assay in all cases: pull-down
6H–hTFIIEα D393A = target: T1, 6H–hTFIIEα D393A (human, UniProt P29083 1-439, D393A)
T1 sequence: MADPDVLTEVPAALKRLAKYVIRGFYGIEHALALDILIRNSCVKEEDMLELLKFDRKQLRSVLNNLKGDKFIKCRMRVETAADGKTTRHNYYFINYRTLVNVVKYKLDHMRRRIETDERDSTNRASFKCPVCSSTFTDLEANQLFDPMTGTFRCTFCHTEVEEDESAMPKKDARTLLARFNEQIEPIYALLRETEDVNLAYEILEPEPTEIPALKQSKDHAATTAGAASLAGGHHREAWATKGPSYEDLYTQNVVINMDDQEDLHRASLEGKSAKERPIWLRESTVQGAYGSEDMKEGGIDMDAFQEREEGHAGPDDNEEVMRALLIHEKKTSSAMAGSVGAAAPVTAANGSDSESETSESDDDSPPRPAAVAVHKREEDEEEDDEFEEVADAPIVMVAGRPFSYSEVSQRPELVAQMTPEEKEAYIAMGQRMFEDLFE

6H–hTFIIEα F387E = target: T2, 6H–hTFIIEα F387E (human, UniProt P29083 1-439, F387E)
T2 sequence: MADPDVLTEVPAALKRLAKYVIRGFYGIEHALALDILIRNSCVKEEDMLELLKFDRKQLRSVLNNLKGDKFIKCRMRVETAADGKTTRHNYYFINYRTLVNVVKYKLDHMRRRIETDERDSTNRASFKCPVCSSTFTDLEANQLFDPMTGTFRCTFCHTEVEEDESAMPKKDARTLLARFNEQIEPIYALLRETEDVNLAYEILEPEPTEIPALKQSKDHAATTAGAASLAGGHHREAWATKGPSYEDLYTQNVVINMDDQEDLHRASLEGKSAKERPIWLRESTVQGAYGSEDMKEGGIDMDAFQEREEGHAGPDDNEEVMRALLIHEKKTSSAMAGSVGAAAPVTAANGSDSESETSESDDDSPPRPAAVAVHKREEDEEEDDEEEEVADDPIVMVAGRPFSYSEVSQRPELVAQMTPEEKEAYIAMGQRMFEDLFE

6H–hTFIIEα V390K = target: T3, 6H–hTFIIEα V390K (human, UniProt P29083 1-439, V390K)
T3 sequence: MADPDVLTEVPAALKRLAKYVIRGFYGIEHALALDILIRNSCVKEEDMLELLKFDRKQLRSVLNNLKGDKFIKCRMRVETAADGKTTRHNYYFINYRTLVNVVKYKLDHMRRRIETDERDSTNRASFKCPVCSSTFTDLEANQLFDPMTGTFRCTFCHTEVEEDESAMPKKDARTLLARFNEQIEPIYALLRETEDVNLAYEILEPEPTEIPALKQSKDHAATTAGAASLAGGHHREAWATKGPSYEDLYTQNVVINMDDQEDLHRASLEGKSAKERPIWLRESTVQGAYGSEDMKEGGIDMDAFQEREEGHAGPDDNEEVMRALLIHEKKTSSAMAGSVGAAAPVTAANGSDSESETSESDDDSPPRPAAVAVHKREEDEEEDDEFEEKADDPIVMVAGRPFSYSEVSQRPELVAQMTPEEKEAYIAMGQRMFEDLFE

6H–hTFIIEα S365A = target: T4, 6H–hTFIIEα S365A (human, UniProt P29083 1-439, S365A)
T4 sequence: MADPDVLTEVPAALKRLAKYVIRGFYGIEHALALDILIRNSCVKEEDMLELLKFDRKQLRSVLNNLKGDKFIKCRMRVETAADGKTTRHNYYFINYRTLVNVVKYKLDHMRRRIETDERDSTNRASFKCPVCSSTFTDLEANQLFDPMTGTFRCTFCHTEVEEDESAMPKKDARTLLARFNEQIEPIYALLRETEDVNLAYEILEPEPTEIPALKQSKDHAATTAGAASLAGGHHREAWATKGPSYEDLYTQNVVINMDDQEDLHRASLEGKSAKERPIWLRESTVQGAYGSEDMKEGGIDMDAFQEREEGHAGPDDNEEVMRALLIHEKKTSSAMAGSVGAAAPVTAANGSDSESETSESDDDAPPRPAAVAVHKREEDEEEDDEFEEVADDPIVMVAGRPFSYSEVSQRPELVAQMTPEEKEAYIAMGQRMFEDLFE

6H–hTFIIEα F387A = target: T5, 6H–hTFIIEα F387A (human, UniProt P29083 1-439, F387A)
T5 sequence: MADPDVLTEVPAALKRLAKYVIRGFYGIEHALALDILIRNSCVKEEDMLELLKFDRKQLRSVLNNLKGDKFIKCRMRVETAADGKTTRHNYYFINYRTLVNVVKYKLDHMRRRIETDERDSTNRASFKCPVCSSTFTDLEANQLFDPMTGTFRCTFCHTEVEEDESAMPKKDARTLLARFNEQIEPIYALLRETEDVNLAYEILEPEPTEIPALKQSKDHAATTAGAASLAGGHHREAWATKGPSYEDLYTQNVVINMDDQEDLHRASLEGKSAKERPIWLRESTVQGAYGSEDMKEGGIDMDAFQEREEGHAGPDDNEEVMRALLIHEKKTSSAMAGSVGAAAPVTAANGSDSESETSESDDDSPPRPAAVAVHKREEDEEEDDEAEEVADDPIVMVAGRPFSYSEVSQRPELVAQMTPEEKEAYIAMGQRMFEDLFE

binding result (6H–hTFIIEα D393A): binds | binding result (6H–hTFIIEα F387E): binds | binding result (6H–hTFIIEα V390K): binds | binding result (6H–hTFIIEα S365A): binds | binding result (6H–hTFIIEα F387A): binds
B1: GST-tagged hTFIIEβ (natural protein)
chain: MDPSLLRERELFKKRALSTPVVEKRSASSESSSSSSKKKKTKVEHGGSSGSKQNSDHSNGSFNLKALSGSSGYKFGVLAKIVNYMKTRHQRGDTHPLTLDEILDETQHLDIGLKQKQWLMTEALVNNPKIEVIDGKYAFKPKYNVRDKKALLRLLDQHDQRGLGGILLEDIEEALPNSQKAVKALGDQILFVNRPDKKKILFFNDKSCQFSVDEEFQKLWRSVTVDSMDEEKIEEYLKRQGISSMQESGPKKVAPIQRRKKPASQKKRRFKTHNEHLAGVLKDYSDITSSK
